Experimental data published in article PMC5983854, “Structure-guided approach to site-specific fluorophore labeling of the lac repressor LacI” (PLoS ONE, 2018).
Where a chain is given by its changes, count along the chain named. Names and notes keep the numbering of the source.

B1: LacI^ΔCterm (lactose operon repressor LacI, tetramerization helix residues 339-360 replaced with a 6xHis tag) (domain or fragment, E. coli, UniProt P03023 1-338, looked up)
chain: MKPVTLYDVAEYAGVSYQTVSRVVNQASHVSAKTREKVEAAMAELNYIPNRVAQQLAGKQSLLIGVATSSLALHAPSQIVAAIKSRADQLGASVVVSMVERSGVEACKAAVHNLLAQRVSGLIINYPLDDQDAIAVEAACTNVPALFLDVSDQTPINSIIFSHEDGTRLGVEHLVALGHQQIALLAGPLSSVSARLRLAGWHKYLTRNQIQPIAEREGDWSAMSGFQQTMQMLNEGIVPTAMLVANDQMALGAMRAITESGLRVGADISVVGYDDTEDSSCYIPPLTTIKQDFRLLGQTSVDRLLQLSQGQAVKGNQLLPVSLVKRKTTLAPNTQTAS
notes: Lactose operon repressor LacI, E. coli, 360 amino acid monomer; the native 22 C-terminal amino acids (tetramerization helix, residues 339-360) are replaced with a 6xHis tag, the rest is wild type; only the replaced stretch 339-360 is printed; source: E. coli TOP10 (pBAD24, arabinose-induced), purified (HisTrap HP, Superdex 200 SEC); not shown: His6, C-terminal, kept
B2: LacI^Dimer (LacI^ΔCterm with C107A, C140A; Cys281 retained) (domain or fragment, E. coli, UniProt P03023 1-338, looked up)
chain: B1 chain with C107A, C140A
notes: Lactose operon repressor LacI, E. coli; residues 339-360 replaced with a 6xHis tag; Cys107 and Cys140 replaced with alanine, Cys281 retained; source: E. coli TOP10 (pBAD24, arabinose-induced), purified (HisTrap HP, Superdex 200 SEC); not shown: His6, C-terminal, kept

Tests used:
[1] = test system: LacIDimer-S28C (Escherichia coli); assay: EMSA; conditions: apparent Kd; 3 mM MgCl2; EMSA: 1 nM DNA, 0.5-100 nM LacI, 10 mM Tris pH 7.5, 50 mM NaCl, 3 mM MgCl2, 1 mM TCEP, 0.1 mg/mL BSA, 5% glycerol, room temperature 1 h; TIRF: 100 mM phosphate
[2] = target: the molecule itself; assay: SEC; analytical gel filtration on HiLoad 16/600 Superdex 200, 0.2 mL/min, buffer C (200 mM Tris-HCl pH 7.5, 200 mM KCl, 1 mM EDTA, 0.5 mM TCEP); column calibrated with proteins of known molecular weight; dimer to monomers

Molecule | Kd [1] [nM] | stoichiometry N [2]
5'-Cy5 O1 operator dsDNA | 5.63 | 
B1 |  | 2
B2 |  | 2
